Test results as given in patent publication US6429014B1, “Monoterpene synthases from grand fir (Abies grandis)” (Washington State University Research Foundation, priority 1997, dated 2002).

Tests used:
[1] = Monoterpene synthase assay and product identification with extracts of E. coli expressing Grand fir cDNA clones (Example 3); assay type: biochemical
Procedure: For expression, bacterial strains E. coil XLOLR/pAG3.18, E. coil XLOLR/pAG3.48, E. coli XL1-Blue/pGAG2.2, E. coli XL1-Blue/pGAG3.18, and E. coil BL21(DE3)/pSBAG10were grown to A600=0.5 at 37° C. in 5 ml of LB medium (Sambrock, J., Fritsch, E. F., and Maniatis, T. (1989) Molecular Cloning: A Laboratory Manual, 2d Ed., Cold Spring Harbor Laboratory, Cold Spring Harbor, N.Y.) supplemented with 100 μg ampicillin/ml or 30 μg kanamycin/ml as determined by the vector. Cultures were then induced by addition of 1 mM isopropyl-1-thio-β-D-galactopyranoside and grown for another 12 h at 20° C. Cells were harvested by centrifugation (2000×g, 10 min) and resuspended in either 1 ml monoterpene synthase assay buffer [50 mM Tris/HCl (pH 7.5), 500 mM KCl, 1 mM MnCl2, 5 mM dithiothreitol, 0.05% (w/v) NaHSO3 and 10% (v/v) glycerol], 1 ml sesquiterpene synthase assay buffer [10 mM dibasic potassium phosphate, 1.8 mM monobasic potassium phosphate (pH 7.3), 140 mM NaCl, 10 mM MgCl2, 5 mM dithiothreitol, 0.05% (w/v) NaHSO3 and 10% (v/v) glycerol], or 1 ml diterpene synthase assay buffer [30 mM Hepes (N-2-hydroxyethylpiperazine-N-′2-ethanesulfonic acid, pH 7.2), 7.5 mM MgCl2, 5 mM dithiothreitol, 10 µM MnCl2, 0.05% (w/v) NaHSO3 and 10% (v/v) glycerol].
Cells were disrupted by sonication (Braun-Sonic 2000 with microprobe at maximum power for 15 seconds at 0-4° C.), the homogenates were cleared by centrifugation (18,000×g, 10 min), and 1 ml of the resulting supernatant was assayed for monoterpene synthase activity with 2.5 μM of [1-^3H]geranyl diphosphate, for sesquiterpene synthase activity with 3.5 μM [1-^3H]farnesyl diphosphate, or for diterpene synthase activity with 5 μM [1- ^3H]geranylgeranyl diphosphate following standard protocols (Croteau, R., and Cane, D. E. (1985) Methods Enzymol. 110:383-405; LaFever, R. E., Stofer Vogel, B., and Croteau, R. (1994) Arch. Biochem. Biophys. 313:139-149; Dehal, S. S., and Croteau, R. (1988) Arch. Biochem. Biophys. 261:346-356). In the case of the monoterpene synthase and sesquiterpene synthase assays, the incubation mixture was overlaid with 1 ml pentane to trap volatile products. In all cases, after incubation at 31° C. for 2 h, the reaction mixture was extracted with pentane (3×1 ml) and the combined extract was passed through a 1.5 ml column of anhydrous MgSO4 and silica gel (Mallinckrodt 60 Å) to provide the terpene hydrocarbon fraction free of oxygenated metabolites. The columns were subsequently eluted with 3×1 ml of ether to collect any oxygenated products, and an aliquot of each fraction was taken for liquid scintillation counting to determine conversion rate.
Product Identification—To obtain sufficient product for analysis by radio-GLC (gas liquid chromatography), chiral capillary GLC and GLC-MS (mass spectrum/spectrometry), preparative-scale enzyme incubations were carried out. Thus, the enzyme was prepared from 50 ml of cultured bacterial cells by extraction with 3 ml of assay buffer as above, and the extracts were incubated with excess substrate overnight at 31° C. The hydrocarbon fraction was isolated by elution through MgSO4-silica gel as before, and the pentane eluate was concentrated for evaluation by capillary radio-GLC as described (Croteau, R., and Satterwhite, D. M. (1990) J. Chromatogr. 500:349-354), by chiral column capillary GLC (Lewinsohn, E., Savage, T. J., Gijzen, M., and Croteau, R. (1993) Phytochem. Anal. 4:220-225), and by combined GLC-MS [Hewlett-Packard 6890 GC-MSD with cool (40° C.) on-column injection, detection via electron impact ionization (70 eV), He carrier at 0.7 psi., column:0.25 mm i.d.×30 m fused silica with 0.25 μm film of 5MS (Hewlett-Packard) programmed from 35° C. (5 min hold) to 230° C. at 5° C./min].

[2] = Bohlmann et al. 1997; cited from earlier work

B1: AG3.18: recombinant (−)-pinene synthase from Grand fir encoded by cDNA clone AG3.18 (SEQ ID NO:3; protein SEQ ID NO:4) (protein, listed as Abies grandis)
chain: MALVSTAPLASKSCLHKSLISSTHELKALSRTIPALGMSRRGKSITPSISMSSTTVVTDDGVRRRMGDFHSNLWDDDVIQSLPTAYEEKSYLERAEKLIGEVKNMFNSMSLEDGELMSPLNDLIQRLWIVDSLERLGIHRHFKDEIKSALDYVYSYWGENGIGCGRESVVTDLNSTALGLRTLRLHGYPVSSDVFKAFKGQNGQFSCSENIQTDEEIRGVLNLFRASLIAFPGEKIMDEAEIFSTKYLKEALQKIPVSSLSREIGDVLEYGWHTYLPRLEARNYIQVFGQDTENTKSYVKSKKLLELAKLEFNIFQSLQKRELESLVRWWKESGFPEMTFCRHRHVEYYTLASCIAFEPQHSGFRLGFAKTCHLITVLDDMYDTFGTVDELELFTATMKRWDPSSIDCLPEYMKGVYIAVYDTVNEMAREAEEAQGRDTLTYAREAWEAYIDSYMQEARWIATGYLPSFDEYYENGKVSCGHRISALQPILTMDIPFPDHILKEVDFPSKLNDLACAILRLRGDTRCYKADRARGEEASSISCYMKDNPGVSEEDALDHINAMISDVIKGLNWELLKPDINVPISAKKHAFDIARAFHYGYKYRDGYSVANVETKSLVTRTLLESVPL
Q: With B1 as the molecule, how does the “prenyl diphosphate substrate utilized (geranyl, farnesyl, geranylgeranyl diphosphate tested)” value ([1]; cell-free extract of induced E. coli, tritium labeled substrates) read?
A: The value was “only geranyl diphosphate was utilized”.

Q: What about the “α-pinene share of product mixture from geranyl diphosphate” value ([1]; cell-free extracts of E. coli) of the same molecule?
A: The value was 42%.

Q: And the “β-pinene share of product mixture from geranyl diphosphate” value ([1]; cell-free extracts of E. coli)?
A: Its value is 58%.

Q: What about the “monoterpene products formed from geranyl diphosphate” value ([1]; radio-GLC, GLC-MS, chiral GLC) of the same molecule?
A: Its value is “No other monoterpene co-products were detected”.

Q: What about the “(−)-enantiomer share of the α-pinene formed” value [2] of the same molecule?
A: The value was “more than 99%”.
